Data on 10 molecules can be found in patent US20060257396A1 (published 2006).

Residue numbers refer to the chain shown, from its start.

Assay [1] has as its target T1, Aβ peptide (β-amyloid peptide; form and length not stated for the assay) (UniProt P05067 672-713).
T1 construct: also called beta amyloid peptide
Briefly: BIAcore, Langmuir model (global analysis). (In general: In SPR one partner is held on a chip, and binding of the other changes the refractive index at the surface.)

Assay [2] concerns the target T1, Aβ peptide (β-amyloid peptide; form and …). Briefly: Biacore; humanized h12A11v1.
In assay [3] the target is T2, aggregated synthetic Aβ1-42 (UniProt P05067 672-713).
T2 construct: range 672-713; Aggregated form coated for ELISA; also called aggregated Aβ1-42; aggregate Aβ 1-42
The assay can be described thus: competitive Aβ ELISA with biotin conjugated mouse 12A11 Cγ2a.

Assay [4] addresses T2, aggregated synthetic Aβ1-42. The assay can be described thus: ELISA on aggregated synthetic Aβ1-42. A general note: ELISA stands for enzyme-linked immunosorbent assay.
Assay [5] has the same target. Briefly: ELISA on aggregated synthetic Aβ1-42 (given as ED50).
A further assay addresses T3, Monomer (preparation treated with peroxynitrite; modified residues not stated ; The preparation was treated with peroxynitrite. The modified residues are not stated and cannot be shown in the letters.).
T3 construct: Monomer fraction of the same preparation as m4; also called Aβ1-42 monomer; monomeric Aβ
The assay can be described thus: immunoprecipitation of the peroxynitrite treated oligomeric Aβ1-42 preparation with the antibody, SDS-PAGE (16% Tricine), Western blot imaged with 3D6. In general terms: A western blot detects proteins with antibodies after separation by electrophoresis.

Assay [6] has as its target T1, Aβ peptide (β-amyloid peptide; form and …). The assay can be described thus: BIAcore.
For assay [7] the target is unchanged. The assay can be described thus: average of competitive ELISA and BIAcore.
Assay [8] shares this target. The assay can be described thus: ELISA competitive binding assay with biotinylated 3D6.

B1: humanized 12A11 version 2 (antibody, V domains shown)
VH: QVQLVESGGGVVQPGRSLRLSCAFSGFTLSTSGMSVGWIRQAPGKGLEWVAHIWWDDDKYYNPSLKSRFTISKDTSKNTLYLQMNSLRAEDTAVYYCARRTTTADYFAYWGQGTTVTVSS
VL: DVVMTQSPLSLPVTPGEPASISCRSSQSIVHSNGNTYLEWYLQKPGQSPQLLIYKVSNRFSGVPDRFSGSGSGTDFTLKISRVEAEDVGVYYCFQSSHVPLTFGQGTKLEIK
notes: V region subcloned into heavy chain expression vector pCMV-Cgamma1 (human γ1); also called h12A11v2
As to B1, in [1], the Ka was determined as 6.86e+07 M⁻¹; the Kd (commonly the concentration at which binding is half-saturated) stood at 14.6 nM; the koff (as a rule, a measure of how fast the partners let go of each other) worked out at 0.00412 s⁻¹; the kon (commonly a measure of how fast the partners come together) stood at 283000 M⁻¹ s⁻¹.

B2: humanized 12A11 version 3.1 (antibody, V domains shown)
VH: B1 VH with V50L, T75N
VL: B1 VL
notes: Variable regions only tied to the tested antibody; also called h12A11v3.1; humanized 12A11 v3.1
In assay [1], B2 registered a Ka of 1.67e+08 M⁻¹, a Kd of 5.99 nM, a koff of 0.00313 s⁻¹ and a kon of 523000 M⁻¹ s⁻¹.

B3: humanized 12A11 version 1 (antibody, V domains shown)
VH: B1 VH with T28S, V50L, F69L, L80V
VL: B1 VL
notes: Variable regions only tied to the tested antibody; also called h12A11v1; humanized 12A11 v1
For the molecule B3, binding in assay [2] was put at a Kd of 23 nM. Further, in [1], the Ka amounted to 3.48e+08 M⁻¹, the Kd came out at 2.87 nM, the koff came out at 0.00117 s⁻¹ and the on-rate (kon) is 408000 M⁻¹ s⁻¹. In addition, in assay [3], the “IC50 ratio to murine and chimeric 12A11” value was at most 2 fold.

B4: humanized 12A11 version 3 (antibody, V domains shown)
VH: B1 VH with K73R, T75N
VL: B1 VL
notes: Variable regions only; made like version 2; also called h12A11v3; humanized 12A11 v3
For the molecule B4, in assay [1], the Ka is 6.53e+07 M⁻¹, the Kd turned out to be 15.3 nM, the koff turned out to be 0.0055 s⁻¹ and the association rate constant (kon) was 359000 M⁻¹ s⁻¹.

B5: humanized 12A11 version 2.1 (antibody, V domains shown)
VH: B1 VH with T75N
VL: B1 VL
notes: Variable regions only; made like version 2; also called h12A11v2.1
With B5, in [1], the Ka was 1.17e+08 M⁻¹; the affinity, expressed as Kd, was 8.54 nM; the koff turned out to be 0.00261 s⁻¹; the kon was found to be 306000 M⁻¹ s⁻¹.

B6: murine 12B4 monoclonal antibody (antibody, V domains shown)
VH: QVTLKESGPGILQPSQTLSLTCSFSGFSLSTNGMGVSWIRQPSGKGLEWLAHIYWDEDKRYNPSLKSRLTISKDTSNNQVFLKITNVDTADTATYYCARRRIIYDVEDYFDYWGQGTTLTVSS
VL: DVLMTQTPLSLPVSLGDQASISCRSSQNIVHSNGNTYLEWYLQKPGQSPKLLIYKVSNRFSGVPDRFSGSGSGTDFTLKISRVEAEDLGVYYCFQGSHVPLTFGAGTKLELK
notes: Mouse hybridoma antibody; Leader left out; also called mAb 12B4
As to B6, the EC50 (commonly the midpoint of the concentration-response curve) was below 1 nM in assay [4] and 0.667 nM in assay [5]. Further, the binding result with Monomer was “binds”.

B7: murine 12A11 monoclonal antibody (antibody, mouse IgG1, V domains shown)
VH: QVTLKESGPGILKPSQTLSLTCSFSGFSLSTSGMSVGWIRQPSGKGLEWLAHIWWDDDKYYNPSLKSRLTISKDTSRNQVFLKITSVDTADTATYYCARRTTTADYFAYWGQGTTLTVSS
VL: B6 VL with N28S, V90I, G96S
notes: also called mu12A11; m12A11
Turning to B7, the EC50 in assay [4] is below 1 nM; in [5] it was 0.233 nM.

B8: humanized 3D6 version 1 (antibody, V domains shown)
VH: EVQLLESGGGLVQPGGSLRLSCAASGFTFSNYGMSWVRQAPGKGLEWVASIRSGGGRTYYSDNVKGRFTISRDNAKNSLYLQMNSLRAEDTALYYCVRYDHYSGSSDYWGQGTLVTVSS
VL: YVVMTQSPLSLPVTPGEPASISCKSSQSLLDSDGKTYLNWLLQKPGQSPQRLIYLVSKLDSGVPDRFSGSGSGTDFTLKISRVEAEDVGVYYCWQGTHFPRTFGQGTKVEIK
notes: also called h3D6v1; h3D6 v1
In assay [6], B8 registered a Kd of 2.06 nM. Besides, the “fold loss of binding affinity against murine 3D6” value in assay [7] is around 3 fold. Besides, in assay [8], the “fold less binding affinity than 3D6” value is around 6 fold.

B9: humanized 3D6 version 2 (antibody, V domains shown)
VH: B8 VH with A75S, S78T, L93V
VL: B8 VL with Y1D
notes: also called h3D6v2; h3D6 v2
B9: in assay [6], the Kd came out at 2.24 nM. The “fold loss of binding affinity against murine 3D6” value in [7] is around 3 fold. Moreover, the “fold less binding affinity than 3D6” value in [8] was around 6 fold.

B10: monoclonal antibody 2C1 (antibody, V domains shown)
VH: EVQLQQSGAELVKPGASVKLSCTGSGFNIKVYYVHWLKQLTEQGLEWIGRIDPENGETIYAPKFQDKATLTVDTSSNTAYLQLSSLTSEDTAVYYCVSSGYWGQGTTLTVSS
VL: DIVMTQSAFSNPVTLGTSASISCRSSKSLLHRNGITYLYWYLQKPGQSPQLLIYQMSNLASGVPDRFTSSGSGTDFTLKISRVEAEDVGVYYCAQNLELWTFGGGTKLEIK
B10: the EC50 was below 1 nM in assay [4] and 0.333 nM in assay [5].
